Reference: article PMC12752793, “Development of potent Affitin-based bispecific NK cell engagers for the therapy of MSLN-expressing cancers” (Molecular Therapy Oncology, 2025)

What was measured:
[1] = biological target: human mesothelin on the surface of Meso34-MSLN cells (human) (UniProt Q13421); experiment: flow cytometry on cells; Meso34-MSLN and NK92CD16h cells incubated with increasing concentrations of BiKEs, 30 min at 4°C; streptavidin-PE; one binding site regression
[2] = biological target: recombinant 302–359 fragment of human mesothelin (hMSLN) (human) (UniProt Q13421); experiment: SPR; Biacore T200; hMSLN 302–359 amine-coupled at about 700 RU on CM5; analytes 12.5 to 200 nM in HBS-EP, single cycle kinetics, 30 μL/min; bivalent model; apparent
[3] = biological target: human mesothelin on the surface of Meso34-MSLN cells (human) (UniProt Q13421)
[4] = biological target: T1, recombinant 302–359 fragment of human mesothelin (hMSLN) (human, UniProt Q13421 302-359, biotin on the AviTag); experiment: SPR; bivalent model, kd1
T1 chain: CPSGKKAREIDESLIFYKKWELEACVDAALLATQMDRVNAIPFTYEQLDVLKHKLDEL

[5] = biological target: T1, recombinant 302–359 fragment of human …; experiment: SPR; bivalent model, kd2
[6] = biological target: human mesothelin on the surface of Meso34-MSLN cells (human) (UniProt Q13421); experiment: flow cytometry on cells; Meso34 and Meso34-MSLN cells stained with a concentration range of N13 monomer (streptavidin-PE), N13 dimer (anti-6X His Tag-PE) or MORAb-009 (anti-human IgG Fc), 30 min at 4°C; EC50 by one binding site regression
[7] = biological target: T1, recombinant 302–359 fragment of human …; experiment: SPR; bivalent model, kd1
[8] = biological target: T1, recombinant 302–359 fragment of human …; experiment: SPR; bivalent model, kd2
[9] = biological target: T2, recombinant 302–359 fragment of human mesothelin (hMSLN) (Homo sapiens, UniProt Q13421, biotin on the AviTag); experiment: SPR; Biacore T200; hMSLN 302–359 amine-coupled at about 700 RU on CM5; analytes 12.5 to 200 nM in HBS-EP, single cycle kinetics, 30 μL/min; Langmuir model; details: both partners purified
T2 construct: Amine-coupled to a CM5 chip in SPR, captured on NeutrAvidin in ELISA; source: E. coli Origami B with pBirA, purified (Ni-NTA, Superdex 75); not shown: AviTag, C-terminal, kept

[10] = biological target: T1, recombinant 302–359 fragment of human …; experiment: SPR
[11] = biological target: T1, recombinant 302–359 fragment of human …; experiment: SPR
[12] = biological target: T1, recombinant 302–359 fragment of human …; experiment: SPR
[13] = biological target: recombinant 302–359 fragment of human mesothelin (hMSLN) (human) (UniProt Q13421); experiment: SPR; Biacore T200; hMSLN 302–359 amine-coupled at about 700 RU on CM5; analytes 12.5 to 200 nM in HBS-EP, single cycle kinetics, 30 μL/min; Langmuir model

human mesothelin on the surface of Meso34-MSLN cells (human), sequence (Q13421 other isoform, or with tags, fused parts or gaps): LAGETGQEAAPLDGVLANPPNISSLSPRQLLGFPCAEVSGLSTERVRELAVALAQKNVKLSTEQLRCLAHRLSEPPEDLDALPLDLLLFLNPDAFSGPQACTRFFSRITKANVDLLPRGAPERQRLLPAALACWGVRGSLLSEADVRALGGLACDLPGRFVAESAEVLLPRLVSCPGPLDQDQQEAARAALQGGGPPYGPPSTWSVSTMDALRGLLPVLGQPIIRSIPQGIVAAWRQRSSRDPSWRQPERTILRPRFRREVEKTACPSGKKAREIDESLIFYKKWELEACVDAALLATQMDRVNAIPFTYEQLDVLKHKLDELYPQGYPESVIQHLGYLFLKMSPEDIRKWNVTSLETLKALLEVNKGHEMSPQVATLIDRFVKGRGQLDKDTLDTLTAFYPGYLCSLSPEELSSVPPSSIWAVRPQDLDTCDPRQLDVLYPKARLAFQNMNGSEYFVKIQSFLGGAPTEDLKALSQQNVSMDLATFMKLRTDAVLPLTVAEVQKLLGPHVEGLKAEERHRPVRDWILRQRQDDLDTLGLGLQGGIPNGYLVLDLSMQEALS

B1: C21(N13)2 bispecific NK cell engager (anti-CD16 VHH C21 fused to a homodimer of N13 Affitin) (designed binder)
chain: MEVQLVESGGELVQAGGSLRLSCAASGLTFSSYNMGWFRRAPGKEREFVASITWSGRDTFYADSVKGRFTISRDNAKNTVYLQMSSLKPEDTAVYYCAANPWPVAAPRSGTYWGQGTQVTVSSPSGQAGAAASESLFVSNHAYGSATKVKFKVFGEEKEVDISKIKHVDRMNWRGLLYIRFSYDDNGKLGHGWVSEKDAPKELLEKLKPSGQAGAAASESLFVSNHAYGSGATKVKFKVFGEEKEVDISKIKHVDRMNWRGLLYIRFSYDDNGKLGHGWVSEKDAPKELLEKLKLNRGSHHHHHHGSGLNDIFEAQKIEWHE
modifications: biotin on the AviTag
EC50 [1]: 7.45 nM
Kd [2]: 0.831 nM
ED50 of NK92CD16h-mediated 51Cr cytotoxicity on Meso34-MSLN cells, effector/target ratio 10:1 [3]: 0.325 nM
ED50 of NK92CD16h-mediated 51Cr cytotoxicity on Meso34-MSLN cells, effector/target ratio 20:1 [3]: 0.277 nM
maximal NK92CD16h-mediated 51Cr cytotoxicity on Meso34-MSLN cells, effector/target ratio 10:1 [3]: 22.6%
maximal NK92CD16h-mediated 51Cr cytotoxicity on Meso34-MSLN cells, effector/target ratio 20:1 [3]: 38.9%
koff [4]: 0.136 s⁻¹
koff [5]: 0.000762 s⁻¹

B2: N13 Affitin homodimer (two N13 Affitins linked by a 20-amino-acid HMA linker) (designed binder)
chain: MRGSHHHHHHGSATKVKFKVFGEEKEVDISKIKHVDRMNWRGLLYIRFSYDDNGKLGHGWVSEKDAPKELLEKLKPSGQAGAAASESLFVSNHAYGSGATKVKFKVFGEEKEVDISKIKHVDRMNWRGLLYIRFSYDDNGKLGHGWVSEKDAPKELLEKLKLGSGLNDIFEAQKIEWHE
Kd [2]: 0.57 nM
fold reduction of the dissociation rate constant (kd) against the N13 monomer [2]: 84 fold
EC50 [6]: 2.22 nM
fold increase in affinity for cellular hMSLN against the N13 monomer [6]: 1000 fold
koff [7]: 0.0573 s⁻¹
koff [8]: 0.000767 s⁻¹

B3: VHH A1 (anti-hMSLN VHH) (VHH)
VHH: DVQLQESGGGLVHPGGSLRLSCAASGIDLSLYRMRWYRQAPGKERDLVALITDDGTSYYEDSVKGRFTITRDNPSNKVFLQMNSLKPEDTAVYYCNAETPLSPVNYWGQGTQVTVSS
Kd [9]: 15.6 nM
koff [10]: 0.804 s⁻¹

B4: N23 Affitin (monomer) (designed binder)
chain: MRGSHHHHHHGSATKVKFKLFGEEKEVDISKIKRVERRAIQAASYIAFAYDDNGKIGHGWVSEKDAPKELLEKLKLN
modifications: biotin on the AviTag
koff [11]: 0.288 s⁻¹

B5: C21(N13)1 bispecific NK cell engager (anti-CD16 VHH C21 fused to one N13 Affitin) (designed binder)
chain: MEVQLVESGGELVQAGGSLRLSCAASGLTFSSYNMGWFRRAPGKEREFVASITWSGRDTFYADSVKGRFTISRDNAKNTVYLQMSSLKPEDTAVYYCAANPWPVAAPRSGTYWGQGTQVTVSSPSGQAGAAASESLFVSNHAYGSATKVKFKVFGEEKEVDISKIKHVDRMNWRGLLYIRFSYDDNGKLGHGWVSEKDAPKELLEKLKKLNRGSHHHHHHGSGLNDIFEAQKIEWHE
modifications: biotin on the AviTag
affinity for Meso34-hMSLN cells [1]: > 100 nM
koff [12]: 0.0385 s⁻¹
Kd [13]: 67.1 nM
ED50 of NK92CD16h-mediated 51Cr cytotoxicity on Meso34-MSLN cells, effector/target ratio 10:1 [3]: 5.62 nM
ED50 of NK92CD16h-mediated 51Cr cytotoxicity on Meso34-MSLN cells, effector/target ratio 20:1 [3]: 3.11 nM
maximal NK92CD16h-mediated 51Cr cytotoxicity on Meso34-MSLN cells, effector/target ratio 10:1 [3]: 19.2%
maximal NK92CD16h-mediated 51Cr cytotoxicity on Meso34-MSLN cells, effector/target ratio 20:1 [3]: 26.1%

B6: N18 Affitin (monomer) (designed binder)
chain: MRGSHHHHHHGSATKVKFKLFGEEKEVDISKIKKVERRTFHMDKTIVFMYDDNGKSGYGWVSEKDAPKELLEKLKLN
modifications: biotin on the AviTag
koff [11]: 0.073 s⁻¹

B7: N7 Affitin (monomer) (designed binder)
chain: MRGSHHHHHHGSATKVKFKYMGEEKEVDISKIKVVSRSVGPLGSFILFQYDDNGKMGRGFVSEKDAPKELLEKLKLN
modifications: biotin on the AviTag
koff [11]: 0.214 s⁻¹

B8: N13 Affitin (monomer) (designed binder)
chain: MRGSHHHHHHGSATKVKFKVFGEEKEVDISKIKHVDRMNWRGLLYIRFSYDDNGKLGHGWVSEKDAPKELLEKLKLN
modifications: biotin on the AviTag
koff [11]: 0.0647 s⁻¹
